# B1: Hairpin Ribozyme (parent)
# chain: GUCCUCUUUCACGUGCGCGUGAAAGAGAGAAGUGAACCAGAGAAACACACGUUGUGGUAUAUUACCUGGUA
# Variants of: B1
# Assay: self-cleavage, relative activity (ratio to wild type); higher = more cleavage; co-transcriptional
row,Variant,self-cleavage
1,A43U A49C,0.173
2,U7G A39G,0.377
3,C6G A59U,0.192
4,A41U U70G,1.1
5,C38U U53G,0.431
6,U9C U14G,0.754
7,G13C,0.681
8,C66G U70C,0.132
9,G17A U55C,0.354
10,G15C G34A,1.02
11,C16A G51C,0.714
12,C10U U55C,0.337
13,A43G C48G,0.139
14,A26U U63G,0.158
15,A26G G56A,0.271
16,U33C U55A,0.0653
17,A26U U62A,0.214
18,A24G U53G,0.591
19,U8C U20C,0.184
20,C12G C37A,0.159
21,G42U A71G,0.393
22,C12A G57U,0.172
23,U14G G17A,0.854
24,U7G G19A,0.618

row,Variant,self-cleavage
1,G40C U53G,0.103
2,U20C G32C,0.0574
3,C4A A49G,0.157
4,G17C C66A,0.154
5,U9G C48G,0.0994
6,C18U A31G,0.721
7,G17U U63G,0.0762
8,U5A A41U,0.818
9,G19U C48U,0.162
10,C12G G42U,0.343
11,G17C G21U,0.53
12,G29A U63C,0.0755
13,A28G U63A,0.141
14,U14A A47G,0.153
15,G42U G54C,0.122
16,A11G A30G,0.269
17,G19C G27A,0.361
18,C6G A31U,0.0803
19,U20G A44U,0.0389
20,U9A C48G,0.127
21,U9G C50G,0.208
22,C10A G57A,0.162
23,A11C G25A,0.504
24,U8A G21A,0.618

row,Variant,self-cleavage
1,C12U G27C,0.15
2,A31U G68A,0.157
3,C18A G42U,0.369
4,A23C A35C,0.797
5,G13A A35U,0.78
6,A35C G54A,0.483
7,G13U C37U,0.443
8,G27U A28C,0.179
9,C4G G51C,0.207
10,A36C C37U,0.148
11,G21A C37G,0.344
12,C18U C46U,0.195
13,A47U C48G,0.137
14,G1C A45U,0.217
15,U9A G56A,0.158
16,A24G U52G,0.687
17,U8C A36U,0.393
18,U33A A43G,0.169
19,A44C U60G,0.0874
20,G27U A30G,0.0852
21,U67C G69C,0.188
22,G32C A64U,0.159
23,G13A A45G,0.161
24,U2A G68C,0.154

row,Variant,self-cleavage
1,A11C U67A,0.116
2,C37A G40C,0.158
3,G51C U55A,0.19
4,U8A A64U,0.151
5,U55G U62G,0
6,G40C C65U,0.129
7,G17C,0.751
8,A11G C18G,0.816
9,A36C A41C,0.401
10,C18U A41G,1.04
11,A28G G42U,0.375
12,G21A G34A,0.968
13,A39G A49U,0.0948
14,G13A G54C,0.346
15,C48G U63C,0.0816
16,A26C G40C,0.11
17,U9G U60A,0.645
18,C10A C66G,0.158
19,G17U A22U,0.793
20,G57A A61G,0.169
21,G25C U70A,0.574
22,U33G U60A,0.0846
23,U9C G21U,0.695
24,G54A U58G,0.178

row,Variant,self-cleavage
1,A49C A59U,0.287
2,G1U C12A,0.0913
3,C37U G54A,0.397
4,G42C A45U,0.124
5,G17C C38U,0.481
6,A23C A39U,0.269
7,A22G U33G,0.111
8,A26U A45C,0.223
9,G13C A23G,0.373
10,G54A A61C,0.192
11,U20A G54U,0.547
12,A64C A71G,0.266
13,A24C C48G,0.133
14,A23C G56U,0.1
15,C4A A61G,0.279
16,A36G U63C,0.201
17,G1U G57U,0.125
18,G15A U58A,0.533
19,G17U U55C,0.301
20,G15U A43U,0.104
21,A64C C65G,0.161
22,C66A G69U,0.156
23,A41C G54A,0.829
24,G42A U52A,0.221

row,Variant,self-cleavage
1,C18G A35U,0.544
2,G57U A59C,0.188
3,A36C C50A,0.0511
4,U8G G68C,0.183
5,G15A U60C,0.853
6,C38G U52A,0.169
7,A45G U60C,0.0993
8,G34C U55C,1.19
9,C6U A44C,0.119
10,G25C A31G,0.153
11,U9A A43U,0.105
12,U14G A22G,0.798
13,C4G G69C,0.193
14,A22U U52C,0.631
15,A26G A43C,0.11
16,G15A C38G,0.297
17,G17A G21C,0.834
18,A36G G68U,0.237
19,A45U G51C,0.0528
20,C3U A36U,0.33
21,C4U U5A,0.0527
22,A22C G56U,0.148
23,A11U A31U,0.0898
24,C48U U52G,0.311

row,Variant,self-cleavage
1,G25C A39G,0.168
2,C12U G68C,0.191
3,A23U A35C,0.848
4,G1U A39C,0.118
5,U33G U60G,0.0365
6,U2A A61U,0.159
7,G1A G51U,0.274
8,C4A C65U,0.137
9,U63A A71C,0.287
10,C48U G51C,0.0415
11,A24U G29C,0.115
12,G34U A35C,1.2
13,C16U A49C,0.204
14,G34C C65G,1.07
15,U5C G54U,0.492
16,G51A U60G,0.672
17,C38U C50A,0.207
18,C46U U53A,0.215
19,C4G C6A,0.195
20,C6G G21U,0.181
21,C48U U55C,0.132
22,A23G G57U,0.142
23,A22G C46U,0.0765
